Laboratory results from paper PMC9482650, “Quantitative fragmentomics allow affinity mapping of interactomes” (Nature Communications, 2022).

How the values were obtained:
Test in all cases: holdup assay
Parameters in all cases: key: below the threshold = too weak to quantify, mostly under pKd 3.1 to 4
[1] = molecular target: PTPN3, P26045; settings: modified: O-phospho-L-serine at S732 (position -3 from the C-terminal residue); O-phospho-L-threonine at T734 (position -1 from the C-terminal residue)
Sequence of PTPN3, P26045 (P26045 505-587): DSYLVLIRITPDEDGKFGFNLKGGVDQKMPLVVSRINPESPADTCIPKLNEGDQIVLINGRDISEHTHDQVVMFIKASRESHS

[2] = molecular target: MAST2, Q6P0Q8
[3] = molecular target: MAGI3_2, Q5TCQ9; settings: modified: O-phospho-L-serine at S732 (position -3 from the C-terminal residue); O-phospho-L-threonine at T734 (position -1 from the C-terminal residue)
Sequence of MAGI3_2, Q5TCQ9 (Q5TCQ9 398-503): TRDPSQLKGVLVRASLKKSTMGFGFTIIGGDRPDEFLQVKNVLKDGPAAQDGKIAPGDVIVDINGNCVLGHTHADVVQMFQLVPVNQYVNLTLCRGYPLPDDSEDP

[4] = molecular target: MAGI2_2, Q86UL8
Sequence of MAGI2_2, Q86UL8 (Q86UL8 410-522): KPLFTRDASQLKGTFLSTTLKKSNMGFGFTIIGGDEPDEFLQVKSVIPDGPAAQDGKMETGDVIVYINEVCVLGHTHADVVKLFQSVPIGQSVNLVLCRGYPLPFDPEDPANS

[5] = molecular target: ARHGEF12, Q9NZN5-2; settings: modified: phosphorylated residue at S732 (position -3 from the C-terminal residue); phosphorylated residue at T734 (position -1 from the C-terminal residue)
Sequence of ARHGEF12, Q9NZN5-2 (Q9NZN5 other isoform, or with tags, fused parts or gaps): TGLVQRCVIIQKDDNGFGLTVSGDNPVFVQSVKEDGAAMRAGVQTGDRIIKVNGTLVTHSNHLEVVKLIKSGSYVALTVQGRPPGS

[6] = molecular target: SCRIB_3, Q14160
[7] = molecular target: SYNJ2BP, P57105
[8] = molecular target: SNTA1, Q13424; settings: modified: O-phospho-L-serine at S732 (position -3 from the C-terminal residue); O-phospho-L-threonine at T734 (position -1 from the C-terminal residue)
Sequence of SNTA1, Q13424 (Q13424 84-171): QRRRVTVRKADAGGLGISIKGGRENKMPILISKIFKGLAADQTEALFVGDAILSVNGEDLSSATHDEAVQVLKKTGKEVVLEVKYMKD

[9] = molecular target: PDZRN4_1, Q6ZMN7; settings: modified: O-phospho-L-serine at S732 (position -3 from the C-terminal residue); O-phospho-L-threonine at T734 (position -1 from the C-terminal residue)
Sequence of PDZRN4_1, Q6ZMN7 (Q6ZMN7 213-318): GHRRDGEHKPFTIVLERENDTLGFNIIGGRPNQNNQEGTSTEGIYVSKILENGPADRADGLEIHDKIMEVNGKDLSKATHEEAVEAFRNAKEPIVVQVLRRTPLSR

[10] = molecular target: SNTB1, Q13884; settings: modified: O-phospho-L-serine at S732 (position -3 from the C-terminal residue); phosphorylated residue at T734 (position -1 from the C-terminal residue)
Sequence of SNTB1, Q13884 (Q13884 107-196): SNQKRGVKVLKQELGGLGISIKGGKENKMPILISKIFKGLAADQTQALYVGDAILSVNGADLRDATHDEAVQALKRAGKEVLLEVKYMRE

[11] = molecular target: SCRIB_1, Q14160; settings: modified: O-phospho-L-serine at S732 (position -3 from the C-terminal residue); O-phospho-L-threonine at T734 (position -1 from the C-terminal residue)
Sequence of SCRIB_1, Q14160 (Q14160 718-814): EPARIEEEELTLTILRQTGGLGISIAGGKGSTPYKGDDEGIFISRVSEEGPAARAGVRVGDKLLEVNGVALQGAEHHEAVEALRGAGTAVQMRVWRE

[12] = molecular target: PARD3B_1, Q8TEW8
[13] = molecular target: SNTG2, Q9NY99; settings: modified: phosphorylated residue at S732 (position -3 from the C-terminal residue); phosphorylated residue at T734 (position -1 from the C-terminal residue)
Sequence of SNTG2, Q9NY99 (Q9NY99 70-159): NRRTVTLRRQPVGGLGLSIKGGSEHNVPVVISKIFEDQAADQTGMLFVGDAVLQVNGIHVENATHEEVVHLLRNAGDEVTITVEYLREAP

[14] = molecular target: HTRA1, Q92743; settings: modified: phosphorylated residue at T733 (position -2 from the C-terminal residue); phosphorylated residue at T734 (position -1 from the C-terminal residue)
Sequence of HTRA1, Q92743 (Q92743 365-480): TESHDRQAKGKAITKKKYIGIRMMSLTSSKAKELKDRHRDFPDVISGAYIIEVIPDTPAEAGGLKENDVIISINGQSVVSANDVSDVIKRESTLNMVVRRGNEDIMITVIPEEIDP

[15] = molecular target: PDZD7_3, Q9H5P4; settings: modified: phosphorylated residue at S732 (position -3 from the C-terminal residue); phosphorylated residue at T733 (position -2 from the C-terminal residue); phosphorylated residue at T734 (position -1 from the C-terminal residue)
Sequence of PDZD7_3, Q9H5P4 (Q9H5P4 858-953): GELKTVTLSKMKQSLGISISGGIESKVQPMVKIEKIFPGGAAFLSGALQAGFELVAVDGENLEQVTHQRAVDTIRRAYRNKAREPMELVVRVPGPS

[16] = molecular target: SNX27, Q96L92; settings: modified: phosphorylated residue at S732 (position -3 from the C-terminal residue); phosphorylated residue at T734 (position -1 from the C-terminal residue)
[17] = molecular target: APBA1_2, Q02410; settings: plain residues with an end cap or a label only
Sequence of APBA1_2, Q02410 (Q02410 742-822): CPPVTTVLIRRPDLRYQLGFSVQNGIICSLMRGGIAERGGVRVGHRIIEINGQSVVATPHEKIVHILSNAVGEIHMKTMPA

[18] = molecular target: APBA2_1, Q99767; settings: plain residues with an end cap or a label only
Sequence of APBA2_1, Q99767 (Q99767 565-653): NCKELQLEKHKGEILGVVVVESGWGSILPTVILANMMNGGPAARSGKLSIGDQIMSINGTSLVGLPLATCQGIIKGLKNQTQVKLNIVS

[19] = molecular target: DLG2_3, Q15700; settings: plain residues with an end cap or a label only (N-terminal biotin on a linker: ado-ado)
[20] = molecular target: IL16_4, Q14005; settings: plain residues with an end cap or a label only (N-terminal biotin on a linker: ado-ado)
Sequence of IL16_4, Q14005 (Q14005 1229-1329): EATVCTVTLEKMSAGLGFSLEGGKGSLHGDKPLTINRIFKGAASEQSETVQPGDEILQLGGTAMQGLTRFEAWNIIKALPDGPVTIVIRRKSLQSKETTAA

[21] = molecular target: NHERF4_4, Q86UT5; settings: plain residues with an end cap or a label only (N-terminal biotin on a linker: ado-ado)
Sequence of NHERF4_4, Q86UT5 (Q86UT5 464-550): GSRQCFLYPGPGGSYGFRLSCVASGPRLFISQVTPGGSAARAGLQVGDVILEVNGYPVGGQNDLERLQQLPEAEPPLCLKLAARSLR

[22] = molecular target: T1, NHERF3_1, Q5T2W1; settings: plain residues with an end cap or a label only (N-terminal biotin on a linker: ado-ado)
T1 sequence (Q5T2W1 4-100, limits assumed, looked up): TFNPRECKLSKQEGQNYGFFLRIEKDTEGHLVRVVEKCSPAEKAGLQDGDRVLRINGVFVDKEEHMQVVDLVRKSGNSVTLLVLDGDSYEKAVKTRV

[23] = molecular target: DLG1_2, Q12959; settings: plain residues with an end cap or a label only (N-terminal biotin on a linker: ado-ado)
Sequence of DLG1_2, Q12959 (Q12959 314-412): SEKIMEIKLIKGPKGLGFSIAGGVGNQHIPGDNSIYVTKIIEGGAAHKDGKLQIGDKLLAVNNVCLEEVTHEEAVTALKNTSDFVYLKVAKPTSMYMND

[24] = molecular target: T2, LIN7B, Q9HAP6; settings: plain residues with an end cap or a label only (N-terminal biotin on a linker: ado-ado)
T2 sequence (Q9HAP6 88-185, limits assumed, looked up): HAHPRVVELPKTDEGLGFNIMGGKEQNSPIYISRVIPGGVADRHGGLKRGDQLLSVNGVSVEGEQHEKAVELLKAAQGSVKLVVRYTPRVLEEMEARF

[25] = molecular target: GRASP, Q7Z6J2; settings: plain residues with an end cap or a label only (N-terminal biotin on a linker: ado-ado)
Sequence of GRASP, Q7Z6J2 (Q7Z6J2 96-193): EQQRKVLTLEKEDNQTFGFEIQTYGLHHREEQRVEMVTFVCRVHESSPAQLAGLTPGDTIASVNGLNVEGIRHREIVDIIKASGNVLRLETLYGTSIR

[26] = molecular target: T3, MPP6, Q9NZW5; settings: plain residues with an end cap or a label only (N-terminal biotin on a linker: ado-ado)
T3 sequence (Q9NZW5 125-219, limits assumed, looked up): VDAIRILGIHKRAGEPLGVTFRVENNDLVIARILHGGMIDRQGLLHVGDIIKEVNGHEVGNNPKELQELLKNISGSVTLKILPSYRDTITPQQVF

[27] = molecular target: PARD3_3, Q8TEW0; settings: plain residues with an end cap or a label only (N-terminal biotin on a linker: ado-ado)
Sequence of PARD3_3, Q8TEW0 (Q8TEW0 582-685): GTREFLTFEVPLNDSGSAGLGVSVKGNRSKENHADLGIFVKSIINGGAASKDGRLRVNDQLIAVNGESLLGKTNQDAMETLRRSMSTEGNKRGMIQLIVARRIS

[28] = molecular target: NHERF4_2, Q86UT5; settings: plain residues with an end cap or a label only (N-terminal biotin on a linker: ado-ado)
Sequence of NHERF4_2, Q86UT5 (Q86UT5 220-308): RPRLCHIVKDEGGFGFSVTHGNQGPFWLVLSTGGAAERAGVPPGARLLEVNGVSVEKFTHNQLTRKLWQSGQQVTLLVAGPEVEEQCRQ

[29] = molecular target: FRMPD4, Q14CM0; settings: plain residues with an end cap or a label only (N-terminal biotin on a linker: ado-ado)
Sequence of FRMPD4, Q14CM0 (Q14CM0 67-160): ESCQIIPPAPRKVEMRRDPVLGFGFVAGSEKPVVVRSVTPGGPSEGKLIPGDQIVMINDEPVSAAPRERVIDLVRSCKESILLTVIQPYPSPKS

[30] = molecular target: MAGI2_4, Q86UL8; settings: plain residues with an end cap or a label only (N-terminal biotin on a linker: ado-ado)
Sequence of MAGI2_4, Q86UL8 (Q86UL8 772-865): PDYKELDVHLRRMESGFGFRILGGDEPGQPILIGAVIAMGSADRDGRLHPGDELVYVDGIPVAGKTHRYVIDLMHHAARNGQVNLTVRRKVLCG

[31] = molecular target: APBA1_1, Q02410; settings: plain residues with an end cap or a label only
Sequence of APBA1_1, Q02410 (Q02410 other isoform, or with tags, fused parts or gaps): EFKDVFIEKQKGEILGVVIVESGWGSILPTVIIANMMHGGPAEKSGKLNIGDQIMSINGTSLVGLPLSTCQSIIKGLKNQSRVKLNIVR

[32] = molecular target: AHNAK1, Q09666; settings: plain residues with an end cap or a label only
Sequence of AHNAK1, Q09666 (Q09666 2-98): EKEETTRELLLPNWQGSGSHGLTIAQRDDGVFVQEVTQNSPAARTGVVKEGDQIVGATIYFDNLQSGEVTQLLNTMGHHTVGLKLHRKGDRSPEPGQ

[33] = modified: O-phospho-L-serine at S732 (position -3 from the C-terminal residue), O-phospho-L-threonine at T734 (position -1 from the C-terminal residue)
[34] = plain residues with an end cap or a label only (N-terminal biotin on a linker: ado-ado)

Binder: RVRKLPSTTL [a stretch of Q15418, Q15418]
- pKd [1]: below the threshold
- pKd [2, 33]: below the threshold
- pKd [3]: below the threshold
- pKd ([4]; modified: O-phospho-L-threonine at T734 (position -1 from the C-terminal residue), phosphorylated residue at S732 (position -3 from the C-terminal residue)): below the threshold
- pKd [5]: below the threshold
- pKd [6, 33]: below the threshold
- pKd [7, 33]: below the threshold
- pKd [8]: below the threshold
- pKd [9]: below the threshold
- pKd [10]: below the threshold
- pKd [11]: below the threshold
- pKd ([12]; modified: phosphorylated residue at S732 (position -3 from the C-terminal residue), phosphorylated residue at T733 (position -2 from the C-terminal residue), phosphorylated residue at T734 (position -1 from the C-terminal residue)): below the threshold
- pKd [13]: below the threshold
- pKd [14]: below the threshold
- pKd [15]: below the threshold
- pKd [16]: below the threshold

Binder: RRSQSRESQC [a stretch of P03149, P03149]
- pKd [17]: below the threshold

Binder: RRSQSRESQC [a stretch of P69706, P69706]
- pKd [18]: below the threshold

Binder: VKQYADVEGF [HNRNPK, P61978]
- pKd [19]: 3.55
- pKd [20]: 3.51
- pKd [2, 34]: 3.87
- pKd [21]: 3.72
- pKd [22]: 3.53
- pKd [23]: 3.72
- pKd [4, 34]: 3.56
- pKd [24]: 3.61
- pKd [25]: 3.76
- pKd [26]: 3.7

Binder: NTALVESEDL [PALLS, Q8WX93]
- pKd [20]: 3.57
- pKd [27]: 3.61
- pKd [28]: 3.48
- pKd [6, 34]: 3.73
- pKd [7, 34]: 3.49
- pKd [29]: 3.65
- pKd [30]: 3.59
- pKd [12, 34]: 3.58

Binder: RRSQSRESQC [a stretch of P03148, P03148]
- pKd [31]: below the threshold

Binder: RRSQSRESQC [a stretch of P03146, P03146]
- pKd [32]: below the threshold
